Consider 42 molecules from article PMC10681739, “High-throughput data and modeling reveal insights into the mechanisms of cooperative DNA-binding by transcription factor proteins”.

The target of the data set is RUNX1 (Homo sapiens, UniProt Q01196). Kind of data set: gcPBM; 2 nM RUNX1. Particulars: tags: N-terminal GST (pDEST15), kept (PMC6008103); label: surface-attached array probe.
RUNX1, sequence (Q01196 whole entry): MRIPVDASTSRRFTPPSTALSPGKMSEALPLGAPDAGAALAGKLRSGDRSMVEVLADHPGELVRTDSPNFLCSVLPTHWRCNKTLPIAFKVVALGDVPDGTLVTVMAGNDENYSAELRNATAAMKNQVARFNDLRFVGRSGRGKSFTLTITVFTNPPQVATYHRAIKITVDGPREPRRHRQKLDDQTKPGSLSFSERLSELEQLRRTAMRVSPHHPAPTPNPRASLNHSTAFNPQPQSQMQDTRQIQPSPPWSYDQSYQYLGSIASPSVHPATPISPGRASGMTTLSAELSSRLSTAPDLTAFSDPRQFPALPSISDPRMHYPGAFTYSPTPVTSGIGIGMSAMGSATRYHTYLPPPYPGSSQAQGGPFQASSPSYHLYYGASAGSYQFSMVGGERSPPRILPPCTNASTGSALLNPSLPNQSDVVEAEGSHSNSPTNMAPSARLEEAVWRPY

B1: Table S3 C row 72 (dsDNA)
DNA 1: CCCCGTCCACGGCCCCGGAAGCTGACGTCGCCGAAG
DNA 2: CTTCGGCGACGTCAGCTTCCGGGGCCGTGGACGGGG
Take B1: the binding signal was 733 PBM fluorescence, median of replicate spots.

B2: Table S3 C row 148 (dsDNA)
DNA 1: GGCTGCCCGTACTCCCGGAAGCCGAATCCCGGCTGG
DNA 2: CCAGCCGGGATTCGGCTTCCGGGAGTACGGGCAGCC
Consider B2, for which the binding signal is 775 PBM fluorescence, median of replicate spots.

B3: Table S3 C row 24 (dsDNA)
DNA 1: CCCACGCTCTGCGTGCTTCCGGCGAGCAAAGCCCCG
DNA 2: CGGGGCTTTGCTCGCCGGAAGCACGCAGAGCGTGGG
For the molecule B3, the binding signal is 766 PBM fluorescence, median of replicate spots.

B4: Table S3 C row 22 (dsDNA)
DNA 1: CCGGATTGCCTTCACAGGAAGGGAAAGTCACTCCGG
DNA 2: CCGGAGTGACTTTCCCTTCCTGTGAAGGCAATCCGG
In the case of B4, the binding signal is 737 PBM fluorescence, median of replicate spots.

B5: Table S3 C row 57 (dsDNA)
DNA 1: TTCATTGTTAGGGAACATCCGGGCCTGTCCCCTCCC
DNA 2: GGGAGGGGACAGGCCCGGATGTTCCCTAACAATGAA
As for B5, the binding signal is 752 PBM fluorescence, median of replicate spots.

B6: Table S3 C row 110 (dsDNA)
DNA 1: AGCTTATCATCGTCACGGAAGCCCCGCCAGGTGGCG
DNA 2: CGCCACCTGGCGGGGCTTCCGTGACGATGATAAGCT
Consider B6, for which the binding signal is 759 PBM fluorescence, median of replicate spots.

B7: Table S3 C row 193 (dsDNA)
DNA 1: CCGACCCCGCTGCCCCGGAAGGTGAGGCAAGCCTGG
DNA 2: CCAGGCTTGCCTCACCTTCCGGGGCAGCGGGGTCGG
In the case of B7, the binding signal was 761 PBM fluorescence, median of replicate spots.

B8: Table S3 C row 41 (dsDNA)
DNA 1: CAGACTCGGCGTCGGCTTCCGGCGGCGTCAGAGACG
DNA 2: CGTCTCTGACGCCGCCGGAAGCCGACGCCGAGTCTG
As to B8, the binding signal was 762 PBM fluorescence, median of replicate spots.

B9: Table S3 C row 153 (dsDNA)
DNA 1: CCGCCTTCAGGGCGGCGGAAGTCGCTGGCTGCTCTT
DNA 2: AAGAGCAGCCAGCGACTTCCGCCGCCCTGAAGGCGG
Regarding B9, the binding signal is 759 PBM fluorescence, median of replicate spots.

B10: Table S3 C row 98 (dsDNA)
DNA 1: TCGGCGGGGCTGTACCGGAAGTTGCCTCTACTTCTG
DNA 2: CAGAAGTAGAGGCAACTTCCGGTACAGCCCCGCCGA
On to B10, for which the binding signal was 759 PBM fluorescence, median of replicate spots.

B11: Table S3 C row 107 (dsDNA)
DNA 1: CTCGAGCCCGCTCGGCTTCCGTAGCCCCGCCCCATC
DNA 2: GATGGGGCGGGGCTACGGAAGCCGAGCGGGCTCGAG
Take B11: the binding signal is 743 PBM fluorescence, median of replicate spots.

B12: Table S3 C row 164 (dsDNA)
DNA 1: GGGCTGGGTGGAGACAGGAAGCTTCAGAGCCACTCC
DNA 2: GGAGTGGCTCTGAAGCTTCCTGTCTCCACCCAGCCC
For the molecule B12, the binding signal was 735 PBM fluorescence, median of replicate spots.

B13: Table S3 C row 75 (dsDNA)
DNA 1: GGAGCTCACCTTCCAGTTCCGGGAGGCAGGCCGGCC
DNA 2: GGCCGGCCTGCCTCCCGGAACTGGAAGGTGAGCTCC
Regarding B13, the binding signal is 740 PBM fluorescence, median of replicate spots.

B14: Table S3 C row 179 (dsDNA)
DNA 1: CACAAGCGAAACATTCGGAAGCAATTTACTTGCAGC
DNA 2: GCTGCAAGTAAATTGCTTCCGAATGTTTCGCTTGTG
On to B14, for which the binding signal was 751 PBM fluorescence, median of replicate spots.

B15: Table S3 C row 77 (dsDNA)
DNA 1: TCGGGCCGGGAGCCGGTTCCGGCTGAGTCGGCAGGG
DNA 2: CCCTGCCGACTCAGCCGGAACCGGCTCCCGGCCCGA
In the case of B15, the binding signal is 765 PBM fluorescence, median of replicate spots.

B16: Table S3 C row 174 (dsDNA)
DNA 1: TTGCTCTGCGCATGGCGGAAAGGGTGCGCCGCCTGT
DNA 2: ACAGGCGGCGCACCCTTTCCGCCATGCGCAGAGCAA
For B16, the binding signal was 735 PBM fluorescence, median of replicate spots.

B17: Table S3 C row 87 (dsDNA)
DNA 1: AGAGGAGGGGCCCGGCGGAAACTGCCGAGGTCTCCC
DNA 2: GGGAGACCTCGGCAGTTTCCGCCGGGCCCCTCCTCT
As to B17, the binding signal was 733 PBM fluorescence, median of replicate spots.

B18: Table S3 C row 108 (dsDNA)
DNA 1: TCTGCCCTCCCAGCACTTCCGGGCTGGCAGAAGAGC
DNA 2: GCTCTTCTGCCAGCCCGGAAGTGCTGGGAGGGCAGA
Turning to B18, the binding signal was 763 PBM fluorescence, median of replicate spots.

B19: Table S3 C row 82 (dsDNA)
DNA 1: TGATGGGGATCGGTCCGGATGTACTTCAACATCTTT
DNA 2: AAAGATGTTGAAGTACATCCGGACCGATCCCCATCA
On to B19, for which the binding signal is 747 PBM fluorescence, median of replicate spots.

B20: Table S3 C row 124 (dsDNA)
DNA 1: ACTTGGGGCATGCAATTTCCGGCAGCACAGAAAACA
DNA 2: TGTTTTCTGTGCTGCCGGAAATTGCATGCCCCAAGT
B20: the binding signal is 766 PBM fluorescence, median of replicate spots.

B21: Table S3 C row 192 (dsDNA)
DNA 1: CCGCGCAAGCCCCGACATCCGGTTGGCCGGCGTGGG
DNA 2: CCCACGCCGGCCAACCGGATGTCGGGGCTTGCGCGG
B21: the binding signal was 751 PBM fluorescence, median of replicate spots.

B22: Table S3 C row 53 (dsDNA)
DNA 1: GCTGGGACGCCAGACCTTCCGGGTTGCCCGGCCCCG
DNA 2: CGGGGCCGGGCAACCCGGAAGGTCTGGCGTCCCAGC
B22: the binding signal is 748 PBM fluorescence, median of replicate spots.

B23: Table S3 C row 23 (dsDNA)
DNA 1: CCCAGCCGGCCTGGACATCCGCCCCGCGCGCGGCGT
DNA 2: ACGCCGCGCGCGGGGCGGATGTCCAGGCCGGCTGGG
Take B23: the binding signal is 759 PBM fluorescence, median of replicate spots.

B24: Table S3 C row 111 (dsDNA)
DNA 1: GGATCCAGGACACTCCGGAAGACATCGTGCTGGAAG
DNA 2: CTTCCAGCACGATGTCTTCCGGAGTGTCCTGGATCC
B24: the binding signal was 774 PBM fluorescence, median of replicate spots.

B25: Table S3 C row 112 (dsDNA)
DNA 1: ACGTTGCCTCACTGCAGGAAGTGACCCAGGCCTTGC
DNA 2: GCAAGGCCTGGGTCACTTCCTGCAGTGAGGCAACGT
In the case of B25, the binding signal was 771 PBM fluorescence, median of replicate spots.

B26: Table S3 C row 150 (dsDNA)
DNA 1: TCTGAACTCTGACAACTTCCTGTCGCTCTGAGTGTG
DNA 2: CACACTCAGAGCGACAGGAAGTTGTCAGAGTTCAGA
Regarding B26, the binding signal is 757 PBM fluorescence, median of replicate spots.

B27: Table S3 C row 15 (dsDNA)
DNA 1: CAGCCAGCCCTCGCACGGAAGCGAACTTGCTGTCAC
DNA 2: GTGACAGCAAGTTCGCTTCCGTGCGAGGGCTGGCTG
Take B27: the binding signal is 769 PBM fluorescence, median of replicate spots.

B28: Table S3 C row 89 (dsDNA)
DNA 1: AGCACAGCTTCGGGCCGGAATCACGATCCACCAGAC
DNA 2: GTCTGGTGGATCGTGATTCCGGCCCGAAGCTGTGCT
B28: the binding signal is 755 PBM fluorescence, median of replicate spots.

B29: Table S3 C row 36 (dsDNA)
DNA 1: GGACGGCCTCTGAAGCTTCCGCGCCGACTTCTCCGA
DNA 2: TCGGAGAAGTCGGCGCGGAAGCTTCAGAGGCCGTCC
On to B29, for which the binding signal is 741 PBM fluorescence, median of replicate spots.

B30: Table S3 C row 154 (dsDNA)
DNA 1: CCGGCTCATCTGGTATTTCCTGAGCACCTGCGACGT
DNA 2: ACGTCGCAGGTGCTCAGGAAATACCAGATGAGCCGG
Take B30: the binding signal is 757 PBM fluorescence, median of replicate spots.

B31: Table S3 C row 49 (dsDNA)
DNA 1: TGGGACTGACTGAGTCTTCCGTGTGTCGCCGCCGTT
DNA 2: AACGGCGGCGACACACGGAAGACTCAGTCAGTCCCA
As for B31, the binding signal was 756 PBM fluorescence, median of replicate spots.

B32: Table S3 C row 52 (dsDNA)
DNA 1: TTTCGCCGACCCCGCCGGAAGACCAGGCCGGCGCGG
DNA 2: CCGCGCCGGCCTGGTCTTCCGGCGGGGTCGGCGAAA
For B32, the binding signal was 732 PBM fluorescence, median of replicate spots.

B33: Table S3 C row 25 (dsDNA)
DNA 1: CTCCAGGGGTGTCACCGGAAAAAGCCGTTTCTGGAG
DNA 2: CTCCAGAAACGGCTTTTTCCGGTGACACCCCTGGAG
Turning to B33, the binding signal was 765 PBM fluorescence, median of replicate spots.

B34: Table S3 C row 50 (dsDNA)
DNA 1: GCGTGACAGAATGTGCTTCCGCTTGCGCCTCTGAGC
DNA 2: GCTCAGAGGCGCAAGCGGAAGCACATTCTGTCACGC
Turning to B34, the binding signal was 755 PBM fluorescence, median of replicate spots.

B35: Table S3 C row 160 (dsDNA)
DNA 1: ACCCCGTAGCCGGCGCTTCCTGCCGAGGCTGGGGTC
DNA 2: GACCCCAGCCTCGGCAGGAAGCGCCGGCTACGGGGT
B35: the binding signal is 766 PBM fluorescence, median of replicate spots.

B36: Table S3 C row 93 (dsDNA)
DNA 1: TCCTTCCCTGGCAACAGGAAGTGAAAATGCCAGGCC
DNA 2: GGCCTGGCATTTTCACTTCCTGTTGCCAGGGAAGGA
As to B36, the binding signal was 766 PBM fluorescence, median of replicate spots.

B37: Table S3 C row 9 (dsDNA)
DNA 1: CGTGACGCAGGGAAAGTTCCGGCTTCGGCCTCCGCC
DNA 2: GGCGGAGGCCGAAGCCGGAACTTTCCCTGCGTCACG
B37: the binding signal was 736 PBM fluorescence, median of replicate spots.

B38: Table S3 C row 54 (dsDNA)
DNA 1: CAGACCCCGTGGGGCAGGAAGCTGCTGGGGTAGGCC
DNA 2: GGCCTACCCCAGCAGCTTCCTGCCCCACGGGGTCTG
For B38, the binding signal is 758 PBM fluorescence, median of replicate spots.

B39: Table S3 C row 127 (dsDNA)
DNA 1: CTCCGAACTTAGGACAGGAAGAAACAGGCACATTTC
DNA 2: GAAATGTGCCTGTTTCTTCCTGTCCTAAGTTCGGAG
With B39, the binding signal was 751 PBM fluorescence, median of replicate spots.

B40: Table S3 C row 102 (dsDNA)
DNA 1: CCCCGCGTCCCAGACCGGAAGAAGCCCGGCGCAGAC
DNA 2: GTCTGCGCCGGGCTTCTTCCGGTCTGGGACGCGGGG
Turning to B40, the binding signal was 770 PBM fluorescence, median of replicate spots.

B41: Table S3 C row 69 (dsDNA)
DNA 1: TCCCCGAGCGTGCAGCTTCCGGTGAGGGCAGCCCCA
DNA 2: TGGGGCTGCCCTCACCGGAAGCTGCACGCTCGGGGA
On to B41, for which the binding signal is 735 PBM fluorescence, median of replicate spots.

B42: Table S3 C row 161 (dsDNA)
DNA 1: CTATCCCAGGCCTCGCTTCCGGTGACATCATGTCTC
DNA 2: GAGACATGATGTCACCGGAAGCGAGGCCTGGGATAG
As for B42, the binding signal is 749 PBM fluorescence, median of replicate spots.
